This note sets out measurements from US20090291081A1 (AbbVie / Abbott, published 2009).

B1: ABT1-95-6 (other)
VL: DIQMTQSPSSLSASVGDRVTITCRASQPIQGNLRWYQQKPGKAPKLLIYSSSYLESGVPSRFSGSGSGTDFTLTISSLQPEDFATYHCQQGYRWPVTFGQGTKVEIKR
notes: VK dAb
B2: ABT1-95-10 (other)
VL: B1 VL with S56R, Q79H, F83L
notes: VK dAb
B3: ABT1-95-4 (other)
VL: B1 VL with Q30V, G31R, E55Q
notes: VK dAb
B4: ABT1-95-3 (other)
VL: B1 VL with Q30H, E55Q
notes: VK dAb
B5: ABT1-95-9 (other)
VL: B1 VL with S56R, Q79H
notes: VK dAb
B6: ABT1-95-12 (other)
VL: B1 VL with Q30H, G57W
notes: VK dAb
B7: ABT1-95-15 (other)
VL: B1 VL with Q30V, G31R, S56P
notes: VK dAb
B8: ABT2-108-616/ABT1-122 Fab on yeast surface (Fab, V domains shown)
VH: EVQLLESGGGLVQPGGSLRLSCAASGFTFAEYTMMWVRQAPGKGLEWVSRIGQDGKNTYYADSVKGRFTISRDNSKNTLYLQMNSLRAEDTAVYYCAKYTGRIYNHHLFDYWGQGTLVTVSS
VL: DIQMTQSPSSLSASVGDRVTITCRASQPIWTELNWYQQKPGKAPKLLIYGSSSLQSGVPSRFSGSGSGTDFTLTISSLQPEDFATYYCQQFAYFPATFGQGTKVEIKR
B9: ABT2-108-612/ABT1-122 Fab on yeast surface (Fab, V domains shown)
VH: B8 VH with Y104M, N105G
VL: B8 VL
B10: ABT2-108-614/ABT1-122 Fab on yeast surface (Fab, V domains shown)
VH: B8 VH with Y104L, N105R
VL: B8 VL
B11: ABT2-108-608/ABT1-122 Fab on yeast surface (Fab, V domains shown)
VH: B8 VH with Y60T, A61R, I103V, Y104G, N105V
VL: B8 VL
B12: ABT2-108-615/ABT1-122 Fab on yeast surface (Fab, V domains shown)
VH: B8 VH with Y59V, Y60I, A61R, I103V, Y104G, N105V
VL: B8 VL
B13: ABT2-108-603/ABT1-122 Fab on yeast surface (Fab, V domains shown)
VH: B8 VH with G52T, Q53D, D54A, I103V, Y104G, N105V
VL: B8 VL
B14: ABT2-108-606/ABT1-122 Fab on yeast surface (Fab, V domains shown)
VH: B8 VH with A61R, D62S, I103V, Y104G, N105V
VL: B8 VL
B15: ABT2-108-617/ABT1-122 Fab on yeast surface (Fab, V domains shown)
VH: B8 VH with Y104F, N105T
VL: B8 VL
B16: ABT2-108-604/ABT1-122 Fab on yeast surface (Fab, V domains shown)
VH: B8 VH with I51V, G52T, Q53Y, I103V, Y104G, N105V
VL: B8 VL
B17: ABT2-108-605/ABT1-122 Fab on yeast surface (Fab, V domains shown)
VH: B8 VH with A61R, D62E, S63D, I103V, Y104G, N105V
VL: B8 VL
B18: ABT2-108-538x/ABT1-122-511 hu IgG1/K wt (bispecific antibody, V domains shown)
VH: B8 VH with E31D, Y32E, T33G, G52T, Q53Y, D54S, Y104L, N105G
VL: B8 VL with S56R, Q89K
B19: IgG pairing ABT1-122-750X with ABT2-65-17 (bispecific antibody, V domains shown)
VH: EVQLLESGGGLVQPGGSLRLSCVASGFTFEDYQMGWVRQAPGKGLEWVSSISAMGNRTYYADSVKGRFTISRDDSKNTLYLQMNSLRAEDTAVYYCAQNLVRLGRSRWMFDYWGQGTLVTVSS
VL: B8 VL with T20A, R24S, P28H, L33I, N34S, S52A, L54R, S56K, Q89K, A96N
B20: ABT2-108-538x/ABT1-122-750x hu IgG1/K wt (bispecific antibody, V domains shown)
VH: B8 VH with E31D, Y32E, T33G, G52T, Q53Y, D54S, Y104L, N105G
VL: B8 VL with T20A, R24S, P28H, L33I, N34S, S52A, L54R, S56K, Q89K, A96N
B21: ABT2-108-521/ABT1-122 hu IgG1/K wt (bispecific antibody, V domains shown)
VH: B8 VH with Y104L, N105G
VL: DIQMTQSPSSLSASVGDRVTITCRASQPIWTELNWYQQKPGKAPKLLIYGSSSLQSGVPRFSGSGSGTDFTLTISSLQPEDFATYYCQQFAYFPATFGQGTKVEIKR
B22: ABT2-108-538x/ABT1-95-A3 hu IgG1mut 234, 235/K (bispecific antibody, V domains shown)
VH: B8 VH with E31D, Y32E, T33G, G52T, Q53Y, D54S, Y104L, N105G
VL: B1 VL with Q27K, I29G, Q30V, G31R, L33M, S51V, S56P, Q89L, V96P
B23: ABT2-65-17/ABT1-141-25 hu IgG1/K wt (bispecific antibody, V domains shown)
VH: B19 VH
VL: B1 VL with P28W, G31K, N32Q, R34A, E55Q, H87Y, G91H, Y92L, W94V, V96M
B24: ABT2-65-166/ABT1-95-A5 hu IgG1mut 234, 235/K (bispecific antibody, V domains shown)
VH: B19 VH with V23A, N56G, D74N
VL: B1 VL with Q27R, P28T, I29P, Q30V, G31R, S51R, Y53F, S56P, Q89L, V96P
B25: ABT2-65-17/ABT1-95-15 huIgG1/K wt (bispecific antibody, V domains shown)
VH: B19 VH
VL: B1 VL with Q30V, G31R, S56P
B26: ABT2-108/ABT1-141 hu IgG1/K wt (bispecific antibody, V domains shown)
VH: EVQLLESGGGLVQPGGSLRLSCAASGFTFAEYTMMWVRQAPGKGLEWVSRIGQDGKNTYYADSVKGRFTISRDNSKNTLYLQMNSLRAEDTAVYYCAKYTGRVGVHHLFDYWGQGTLVTSS
VL: DIQMTQSPSSLSASVGDRVTITCRASQWIQKQLAWYQQKPGKAPKLLIYSSSYLQSGVPRFSGSGSGTDFTLTISSLQPEDFATYYCQQHLRVPFTFGQGTKVEIKR
B27: ABT2-108/ABT1-95-3 hu IgG1/K wt (bispecific antibody, V domains shown)
VH: B26 VH
VL: B1 VL with Q30H, E55Q

The Kd is the constant that tells how readily two partners part at equilibrium. A low value points to higher affinity. The EC50 is the concentration giving half of the maximal effect. A lower EC50 goes with greater potency. By IC50 is commonly meant the concentration at which inhibition is half-maximal. Higher therefore signals weaker potency in that assay.

Positions count from the first letter of the chain named. Values joined by “and” are separate entries in the source; they are usually repeats but may differ in a detail not shown here. Equal entries are not always repeated.

The first test deals with T1, human IL-1α (human, UniProt P01583 113-271).
T1 construct: also called IL-1alpha; hIL-1α
T1 sequence (looked up): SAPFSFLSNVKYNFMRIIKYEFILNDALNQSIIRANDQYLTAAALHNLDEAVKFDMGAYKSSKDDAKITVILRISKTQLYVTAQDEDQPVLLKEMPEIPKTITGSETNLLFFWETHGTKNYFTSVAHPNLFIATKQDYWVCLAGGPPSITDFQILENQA
The test is described as follows: Table 62 KD; BIAcore presumed.
Molecule B1 gave a Kd of 2.1 nM. That is a single-digit nanomolar value.
The same measure, in the same setting: the figure for B2 is 0.9 nM; for B3 it is 1.5 nM.
On the same count and under the same terms, the figure for B4 is 7 nM; for B5 it is 1 nM.
On the same count and under the same terms, the figure for B6 is 0.9 nM; for B7 it is 0.4 nM.

Another test addresses T2, human IL-1β (human, UniProt P01584 117-269).
T2 construct: also called hIL-1β; rhIL-1 beta
The test is described as follows: yeast surface Fab display, flow cytometry titration. (Flow cytometry measures light scatter and fluorescence of single cells or particles in a stream.)
Molecule B8 gave an EC50 of 0.324 nM.
With B9, the EC50 amounted to 0.267 nM.
Take B10: the EC50 stood at 1.01 nM.
In turn, B11 had an EC50 of 0.366 nM.
Regarding B12, the EC50 was 0.214 nM and the “fold improvement in affinity over ABT2-108” value (from here on “fold improvement in affinity”) came out at 25 fold.
B13: the EC50 came to 1.35 nM.
Still for that read-out and setting: the figure for B14 is 0.343 nM.
For the molecule B15, a half-maximal effect (EC50) was put at 0.224 nM and the “fold improvement in affinity” value stood at 25 fold.
In the case of B16, the EC50 amounted to 1.35 nM and the “fold improvement in affinity” value was 5 fold.
In the case of B17, the EC50 came to 0.21 nM.

The target in a further test is T1, human IL-1α. Kind of test: Table 62 IC50; RBA presumed.
B1 came in with an IC50 of 0.8 nM.
In the case of B2, the IC50 is 0.8 nM.
Same read-out and setting: in the case of B3 it was 0.7 nM; in that of B4, 4 nM; in that of B5, 0.8 nM.
B6 showed an IC50 of 0.8 nM.

The target in another test is T2, human IL-1β. Kind of test: cell-based or functional assay.
On to B18, for which the “MRC5 IL-1β” value turned out to be 0.009 nM.
In the case of B19, the “MRC5 IL-1β” value was 1 nM.
On the same count and under the same terms, in the case of B20 it was 0.0094 nM; in that of B21, 1 nM.
Same read-out and setting: the figure for B22 is 0.023 nM; for B23 it is 0.975 nM.
B24: the “MRC5 IL-1β” value came out at 0.197 nM.
Same read-out and setting: in the case of B25 it was 0.094 nM; in that of B26, 22 nM.

In the next test the target is T3, human IL-1α (human, UniProt P01583 113-271).
T3 sequence (looked up): T1 sequence (looked up)
The test is described as follows: cell-based or functional assay.
Regarding B18, the “MRC5 IL-1α” value is 259 nM.
On to B19, for which the “MRC5 IL-1α” value stood at 20 nM.
The same measure, in the same setting: the figure for B20 is 75 nM.
The same measure, in the same setting: the figure for B21 is 1000 nM; for B22 it is 0.032 nM; for B23 it is 400 nM.
On the same count and under the same terms, the figure for B24 is 0.014 nM.
B25: the “MRC5 IL-1α” value was 2.7 nM.
As to B26, the “MRC5 IL-1α” value was determined as 1500 nM.
Consider B27, for which the “MRC5 IL-1α” value worked out at 300 nM.

The target of the next test is T2, human IL-1β. The test is described as follows: cell-based or functional assay. This is another data set of the same source.
Regarding B18, the “IL-1β IC50” value was 0.006 nM and 0.009 nM and 0.01 nM.
Turning to B20, the “IL-1β IC50” value was 0.005 nM and 0.008 nM and 0.01 nM.
Regarding B21, the “IL-1β IC50” value is 0.2 nM and 0.4 nM.
The same measure, in the same setting: the figure for B22 is 0.035 nM; for B23 it is 1 nM; for B24 it is 0.145 nM.
For the molecule B27, the “IL-1β IC50” value stood at 200 nM.

The target in a further test is T3, human IL-1α. Kind of test: cell-based or functional assay. The source holds these as a separate data set.
Turning to B21, the “IL-1α IC50” value amounted to 1000 nM.
Regarding B22, the “IL-1α IC50” value worked out at 0.095 nM.
As for B23, the “IL-1α IC50” value worked out at 400 nM.
Still for that read-out and setting: in the case of B24 it was 0.015 nM.
Regarding B26, the “IL-1α IC50” value was 1000 nM and 1500 nM and 3000 nM.
Same read-out and setting: the figure for B27 is 1500 nM.

The target in a further test is T1, human IL-1α. The test is described as follows: cell-based or functional assay.
For the molecule B1, the ND50 was 1 nM.
In turn, B3 came in with an ND50 of 2 nM.
Same read-out and setting: in the case of B4 it was 80 nM.
